Source: the supplement of paper PMC5998384

What was measured:
HeLa Kyoto [1] = experiment: melting temperature (median over replicates), in situ; higher = more thermally stable
HeLa Kyoto [2] = experiment: solubility in G1/S (NP-40 vs SDS abundance) (log2 ratio); higher = more soluble; conditions: cell cycle stage: G1/S
HeLa Kyoto [3] = experiment: solubility change mitosis vs G1/S (difference of NP-40 vs SDS log2 ratios) (log2 ratio difference); higher = more soluble in mitosis
HeLa Kyoto [4] = experiment: thermal stability score vs G1/S (z-score of summed log2 fold changes over temperatures); higher = more thermally stable than in G1/S
[5] = cell cycle stage: early G1 (4.5 h after nocodazole release)
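Throughout, for melting temperature (median over replicates), in situ: HeLa Kyoto cells synchronized by double thymidine or nocodazole block, proteins quantified by TMT10plex mass spectrometry, three independent biological replicates.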
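Throughout, for solubility change mitosis vs G1/S (difference of NP-40 vs SDS log2 ratios): synchronized HeLa Kyoto cells (double thymidine block for G1/S, nocodazole release for mitosis), protein amounts in NP-40 versus SDS lysates quantified by mass spectrometry, three biological replicates.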
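Throughout, for solubility in G1/S (NP-40 vs SDS abundance): HeLa Kyoto cells arrested at G1/S by double thymidine block, proteins quantified by TMT10plex mass spectrometry in mild NP-40 versus SDS extracts, three biological replicates.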
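Throughout, for thermal stability score vs G1/S (z-score of summed log2 fold changes over temperatures): synchronized HeLa Kyoto cells, proteins quantified by TMT10plex mass spectrometry, three biological replicates, mitosis taken 0.5 h after nocodazole release, G1/S directly after double thymidine block.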

Sequence | melting temperature (HeLa Kyoto [1]; cell cycle stage: G1/S) [°C] | melting temperature (HeLa Kyoto [1]; cell cycle stage: mitosis) [°C] | solubility in G1/S (log2) (HeLa Kyoto [2]) | solubility change mitosis (log2) (HeLa Kyoto [3]) | thermal stability score (HeLa Kyoto [4]; [5]) | thermal stability score (HeLa Kyoto [4]; cell cycle stage: mitosis)
MEASRRFPEAEALSPEQAAHYLRYVKEAKEATKNGDLEEAFKLFNLAKDIFPNEKVLSRIQKIQEALEELAEQGDDEFTDVCNSGLLLYRELHNQLFEHQKEGIAFLYSLYRDGRKGGILADDMGLGKTVQIIAFLSGMFDASLVNHVLLIMPTNLINTWVKEFIKWTPGMRVKTFHGPSKDERTRNLNRIQQRNGVIITTYQMLINNWQQLSSFRGQEFVWDYVILDEAHKIKTSSTKSAICARAIPASNRLLLTGTPIQNNLQELWSLFDFACQGSLLGTLKTFKMEYENPITRAREKDATPGEKALGFKISENLMAIIKPYFLRRTKEDVQKKKSSNPEARLNEKNPDVDAICEMPSLSRKNDLIIWIRLVPLQEEIYRKFVSLDHIKELLMETRSPLAELGVLKKLCDHPRLLSARACCLLNLGTFSAQDGNEGEDSPDVDHIDQVTDDTLMEESGKMIFLMDLLKRLRDEGHQTLVFSQSRQILNIIERLLKNRHFKTLRIDGTVTHLLEREKRINLFQQNKDYSVFLLTTQVGGVGLTLTAATRVVIFDPSWNPATDAQAVDRVYRIGQKENVVVYRLITCGTVEEKIYRRQVFKDSLIRQTTGEKKNPFRYFSKQELRELFTIEDLQNSVTQLQLQSLHAAQRKSDIKLDEHIAYLQSLGIAGISDHDLMYTCDLSVKEELDVVEESHYIQQRVQKAQFLVEFESQNKEFLMEQQRTRNEGAWLREPVFPSSTKKKCPKLNKPQPQPSPLLSTHHTQEEDISSKMASVVIDDLPKEGEKQDLSSIKVNVTTLQDGKGTGSADSIATLPKGFGSVEELCTNSSLGMEKSFATKNEAVQKETLQEGPKQEALQEDPLESFNYVLSKSTKADIGPNLDQLKDDEILRHCNPWPIISITNESQNAESNVSIIEIADDLSASHSALQDAQASEAKLEEEPSASSPQYACDFNLFLEDSADNRQNFSSQSLEHVEKENSLCGSAPNSRAGFVHSKTCLSWEFSEKDDEPEEVVVKAKIRSKARRIVSDGEDEDDSFKDTSSINPFNTSLFQFSSVKQFDASTPKNDISPPGRFFSSQIPSSVNKSMNSRRSLASRRSLINMVLDHVEDMEERLDDSSEAKGPEDYPEEGVEESSGEASKYTEEDPSGETLSSENKSSWLMTSKPSALAQETSLGAPEPLSGEQLVGSPQDKAAEATNDYETLVKRGKELKECGKIQEALNCLVKALDIKSADPEVMLLTLSLYKQLNNN [ERCC6L] | 49.5 | 49.1 | -0.0349 | -0.161 | 1.6 | 2.53
MIVQRVVLNSRPGKNGNPVAENFRMEEVYLPDNINEGQVQVRTLYLSVDPYMRCRMNEDTGTDYITPWQLSQVVDGGGIGIIEESKHTNLTKGDFVTSFYWPWQTKVILDGNSLEKVDPQLVDGHLSYFLGAIGMPGLTSLIGIQEKGHITAGSNKTMVVSGAAGACGSVAGQIGHFLGCSRVVGICGTHEKCILLTSELGFDAAINYKKDNVAEQLRESCPAGVDVYFDNVGGNISDTVISQMNENSHIILCGQISQYNKDVPYPPPLSPAIEAIQKERNITRERFLVLNYKDKFEPGILQLSQWFKEGKLKIKETVINGLENMGAAFQSMMTGGNIGKQIVCISEEISL [PTGR2] | 50.5 | 50.6 | 0.0876 | -0.0529 | 0.0557 | -0.682
MGCAEGKAVAAAAPTELQTKGKNGDGRRRSAKDHHPGKTLPENPAGFTSTATADSRALLQAYIDGHSVVIFSRSTCTRCTEVKKLFKSLCVPYFVLELDQTEDGRALEGTLSELAAETDLPVVFVKQRKIGGHGPTLKAYQEGRLQKLLKMNGPEDLPKSYDYDLIIIGGGSGGLAAAKEAAQYGKKVMVLDFVTPTPLGTRWGLGGTCVNVGCIPKKLMHQAALLGQALQDSRNYGWKVEETVKHDWDRMIEAVQNHIGSLNWGYRVALREKKVVYENAYGQFIGPHRIKATNNKGKEKIYSAERFLIATGERPRYLGIPGDKEYCISSDDLFSLPYCPGKTLVVGASYVALECAGFLAGIGLDVTVMVRSILLRGFDQDMANKIGEHMEEHGIKFIRQFVPIKVEQIEAGTPGRLRVVAQSTNSEEIIEGEYNTVMLAIGRDACTRKIGLETVGVKINEKTGKIPVTDEEQTNVPYIYAIGDILEDKVELTPVAIQAGRLLAQRLYAGSTVKCDYENVPTTVFTPLEYGACGLSEEKAVEKFGEENIEVYHSYFWPLEWTIPSRDNNKCYAKIICNTKDNERVVGFHVLGPNAGEVTQGFAAALKCGLTKKQLDSTIGIHPVCAEVFTTLSVTKRSGASILQAGCUG [TXNRD1] | 52 | 51.9 | 0.0191 | -0.101 | 1.37 | -1.27
MSLLMISENVKLAREYALLGNYDSAMVYYQGVLDQMNKYLYSVKDTYLQQKWQQVWQEINVEAKHVKDIMKTLESFKLDSTPLKAAQHDLPASEGEVWSMPVPVERRPSPGPRKRQSSQYSDPKSHGNRPSTTVRVHRSSAQNVHNDRGKAVRCREKKEQNKGREEKNKSPAAVTEPETNKFDSTGYDKDLVEALERDIISQNPNVRWDDIADLVEAKKLLKEAVVLPMWMPEFFKGIRRPWKGVLMVGPPGTGKTLLAKAVATECKTTFFNVSSSTLTSKYRGESEKLVRLLFEMARFYSPATIFIDEIDSICSRRGTSEEHEASRRVKAELLVQMDGVGGTSENDDPSKMVMVLAATNFPWDIDEALRRRLEKRIYIPLPSAKGREELLRISLRELELADDVDLASIAENMEGYSGADITNVCRDASLMAMRRRIEGLTPEEIRNLSKEEMHMPTTMEDFEMALKKVSKSVSAADIERYEKWIFEFGSC [KATNA1] | 51.4 | 49.9 | 0.0763 | -0.000211 | 0.0753 | 0.484
MAMAPSPSLVQVYTSPAAVAVWEWQDGLGTWHPYSATVCSFIEQQFVQQKGQRFGLGSLAHSIPLGQADPSLAPYIIDLPSWTQFRQDTGTMRAVRRHLFPQHSAPGRGVVWEWLSDDGSWTAYEASVCDYLEQQVARGNQLVDLAPLGYNYTVNYTTHTQTNKTSSFCRSVRRQAGPPYPVTTIIAPPGHTGVACSCHQCLSGSRTGPVSGRYRHSMTNLPAYPVPQHPPHRTASVFGTHQAFAPYNKPSLSGARSAPRLNTTNAWGAAPPSLGSQPLYRSSLSHLGPQHLPPGSSTSGAVSASLPSGPSSSPGSVPATVPMQMPKPSRVQQALAGMTSVLMSAIGLPVCLSRAPQPTSPPASRLASKSHGSVKRLRKMSVKGATPKPEPEPEQVIKNYTEELKVPPDEDCIICMEKLSTASGYSDVTDSKAIGSLAVGHLTKCSHAFHLLCLLAMYCNGNKDGSLQCPSCKTIYGEKTGTQPQGKMEVLRFQMSLPGHEDCGTILIVYSIPHGIQGPEHPNPGKPFTARGFPRQCYLPDNAQGRKVLELLKVAWKRRLIFTVGTSSTTGETDTVVWNEIHHKTEMDRNITGHGYPDPNYLQNVLAELAAQGVTEDCLEQQ [DTX2] | – | 47.4 | 0.0228 | -0.253 | 0.67 | 0.769
MNKLRQSFRRKKDVYVPEASRPHQWQTDEEGVRTGKCSFPVKYLGHVEVDESRGMHICEDAVKRLKAERKFFKGFFGKTGKKAVKAVLWVSADGLRVVDEKTKDLIVDQTIEKVSFCAPDRNFDRAFSYICRDGTTRRWICHCFMAVKDTGERLSHAVGCAFAACLERKQKREKECGVTATFDASRTTFTREGSFRVTTATEQAEREEIMKQMQDAKKAETDKIVVGSSVAPGNTAPSPSSPTSPTSDATTSLEMNNPHAIPRRHAPIEQLARQGSFRGFPALSQKMSPFKRQLSLRINELPSTMQRKTDFPIKNAVPEVEGEAESISSLCSQITNAFSTPEDPFSSAPMTKPVTVVAPQSPTFQANGTDSAFHVLAKPAHTALAPVAMPVRETNPWAHAPDAANKEIAATCSGTEWGQSSGAASPGLFQAGHRRTPSEADRWLEEVSKSVRAQQPQASAAPLQPVLQPPPPTAISQPASPFQGNAFLTSQPVPVGVVPALQPAFVPAQSYPVANGMPYPAPNVPVVGITPSQMVANVFGTAGHPQAAHPHQSPSLVRQQTFPHYEASSATTSPFFKPPAQHLNGSAAFNGVDDGRLASADRHTEVPTGTCPVDPFEAQWAALENKSKQRTNPSPTNPFSSDLQKTFEIEL [NUMB] | 51.9 | 51.4 | -0.0586 | -0.132 | 0.0697 | 0.793
MGSKGVYQYHWQSHNVKHSGVDDMVLLSKITENSIVENLKKRYMDDYIFTYIGSVLISVNPFKQMPYFGEKEIEMYQGAAQYENPPHIYALADNMYRNMIIDRENQCVIISGESGAGKTVAAKYIMSYISRVSGGGTKVQHVKDIILQSNPLLEAFGNAKTVRNNNSSRFGKYFEIQFSPGGEPDGGKISNFLLEKSRVVMRNPGERSFHIFYQLIEGASAEQKHSLGITSMDYYYYLSLSGSYKVDDIDDRREFQETLHAMNVIGIFAEEQTLVLQIVAGILHLGNISFKEVGNYAAVESEEFLAFPAYLLGINQDRLKEKLTSRQMDSKWGGKSESIHVTLNVEQACYTRDALAKALHARVFDFLVDSINKAMEKDHEEYNIGVLDIYGFEIFQKNGFEQFCINFVNEKLQQIFIELTLKAEQEEYVQEGIRWTPIEYFNNKIVCDLIENKVNPPGIMSILDDVCATMHAVGEGADQTLLQKLQMQIGSHEHFNSWNQGFIIHHYAGKVSYDMDGFCERNRDVLFMDLIELMQSSELPFIKSLFPENLQADKKGRPTTAGSKIKKQANDLVSTLMKCTPHYIRCIKPNETKKPRDWEESRVKHQVEYLGLKENIRVRRAGYAYRRIFQKFLQRYAILTKATWPSWQGEEKQGVLHLLQSVNMDSDQFQLGRSKVFIKAPESLFLLEEMRERKYDGYARVIQKSWRKFVARKKYVQMREEASDLLLNKKERRRNSINRNFIGDYIGMEEHPELQQFVGKREKIDFADTVTKYDRRFKGVKRDLLLTPKCLYLIGREKVKQGPDKGLVKEVLKRKIEIERILSVSLSTMQDDIFILHEQEYDSLLESVFKTEFLSLLAKRYEEKTQKQLPLKFSNTLELKLKKENWGPWSAGGSRQVQFHQGFGDLAVLKPSNKVLQVSIGPGLPKNSRPTRRNTTQNTGYSSGTQNANYPVRAAPPPPGYHQNGVIRNQYVPYPHAPGSQRSNQKSLYTSMARPPLPRQQSTSSDRVSQTPESLDFLKVPDQGAAGVRRQTTSRPPPAGGRPKPQPKPKPQVPQCKALYAYDAQDTDELSFNANDIIDIIKEDPSGWWTGRLRGKQGLFPNNYVTKI [MYO1E] | 49.6 | 49.5 | -0.131 | -0.207 | -0.0451 | 1.13
MAPDSDPFPEGPLLKLLPLDARDRGTQRCRLGPAALHALGARLGSAVKISLPDGGSCLCTAWPRRDGADGFVQLDPLCASPGAAVGASRSRRSLSLNRLLLVPCPPLRRVAVWPVLRERAGAPGARNTAAVLEAAQELLRNRPISLGHVVVAPPGAPGLVAALHIVGGTPSPDPAGLVTPRTRVSLGGEPPSEAQPQPEVPLGGLSEAADSLRELLRLPLRYPRALTALGLAVPRGVLLAGPPGVGKTQLVRAVAREAGAELLAVSAPALQGSRPGETEENVRRVFQRARELASRGPSLLFLDEMDALCPQRGSRAPESRVVAQVLTLLDGASGDREVVVVGATNRPDALDPALRRPGRFDREVVIGTPTLKQRKEILQVITSKMPISSHVDLGLLAEMTVGYVGADLTALCREAAMHALLHSEKNQDNPVIDEIDFLEAFKNIQPSSFRSVIGLMDIKPVDWEEIGGLEDVKLKLKQSIEWPLKFPWEFVRMGLTQPKGVLLYGPPGCAKTTLVRALATSCHCSFVSVSGADLFSPFVGDSEKVLSQIFRQARASTPAILFLDEIDSILGARSASKTGCDVQERVLSVLLNELDGVGLKTIERRGSKSSQQEFQEVFNRSVMIIAATNRPDVLDTALLRPGRLDKIIYIPPPDHKGRLSILKVCTKTMPIGPDVSLENLAAETCFFSGADLRNLCTEAALLALQENGLDATTVKQEHFLKSLKTVKPSLSCKDLALYENLFKKEGFSNVEGI [SPATA5L1] | 52.8 | 51.2 | -0.0544 | 0.095 | -0.664 | -2.04
